Patent publication US12428446B2, “Peptide compound or pharmaceutically acceptable salt thereof” (Eyebio Korea, priority 2019, dated 2025)
*1 amine or outer side, *2 acyl side, *3 side chain or, on linkers, in order; H or OH if unused. Primed or numbered codes have the meaning given here. Where no end group is shown, it is not given here. [ ]: non-standard residue; d: D form. The star is where a group is joined. Pro(trans-4-NH2) = O=C([C@@H]1C[C@@H](N[*:3])CN1[*:1])[*:2]; Pro(4-methylene) = C=C1CN[C@H](C(=O)O)C1; Pro(cis-4-F) = O=C(O)[C@@H]1C[C@H](F)CN1; Pro(4,4-F2) = O=C(O)[C@@H]1CC(F)(F)CN1; Asu′ = aspartimide (aminosuccinimide); Hyp = O=C(O)[C@@H]1C[C@@H](O)CN1; dHyp = O=C(O)[C@H]1C[C@H](O)CN1; Tle = CC(C)(C)[C@H](N)C(=O)O; Aib = CC(C)(N)C(=O)O; OiPr = CC(C)O*

Experiment: Evaluation of dissolution stability (content change on storage in dissolved state)
Format: physicochemical
Conditions: 1 mg/1 ml dissolved state, 40° C. and RH 75%

Substance	Day 1 content (%)	Day 3 content (%)	Day 7 content (%)	Initial content (%)
Hyp-Gly-Gln-Asp (isopropyl ester)-Gly ([Hyp]GQD(OiPr)G) [Example 115]	88.57%	82.00%	71.64%	92.71%
Hyp-Gly-Gln-D Asp-Gly-Leu ([Hyp]GQ[dD]GL) [Example 61]	87.65%	83.70%	56.36%	92.80%
Hyp-Gly-Gln-Leu-Leu-Leu-Ala ([Hyp]GQLLLA) [Example 96]	97.14%	96.64%	96.02%	98.07%
Hyp-Gly-Gln-Asp-Gly-D Leu ([Hyp]GQDG[dL]) [Example 62]	92.60%	84.99%	70.41%	97.24%
Asu-Gly-Leu-Ala-Gly-Pro-Lys ([Asu′]GLAGPK) [Example 105]	54.80%	41.83%	31.24%	89.11%
Hyp-Gly-Gln-Ala-Leu-Leu ([Hyp]GQALL) [Example 123]	99.14%	98.98%	98.86%	99.26%
D Hyp-Gly-Gln-Asp-Gly-Leu ([dHyp]GQDGL) [Example 45]	86.74%	69.07%	56.03%	94.45%
Hyp-Gly-Gln-Asp-Aib-Leu-Ala ([Hyp]GQD[Aib]LA) [Example 83]	95.35%	94.70%	94.00%	95.42%
Hyp-Gly-Gln-Glu-Gly ([Hyp]GQEG) [Example 67]	99.14%	98.75%	98.07%	98.36%
[Hyp]G[dQ]DGL [Example 60]	92.72%	88.92%	58.84%	97.21%
4-methylene-Pro-Gly-Gln-Asp-Gly-Leu ([Pro(4-methylene)]GQDGL) [Example 49]	86.53%	79.49%	60.01%	94.35%
QLGLAGPK [Example 18]	53.91%	36.72%	13.41%	82.99%
trans-4NH2-Pro-Gly-Gln-Asp-Gly-Leu-Ala ([Pro(trans-4-NH2)]GQDGLA) [Example 52]	86.35%	74.65%	54.51%	96.55%
Hyp-Gly-Gln-Asp-Gly-Val-Ala ([Hyp]GQDGVA) [Example 72]	95.91%	90.84%	82.07%	97.08%
cis-4F Pro-Gly-Gln-Asp-Gly-Leu-Ala ([Pro(cis-4-F)]GQDGLA) [Example 51]	83.35%	72.55%	49.31%	92.07%
LGLAGPK [Example 20]	98.77%	99.69%	99.66%	99.35%
Hyp-Gly-Gln-Leu-Val ([Hyp]GQLV) [Example 95]	98.62%	98.10%	97.78%	98.64%
4,4-difluoro-Pro-Gly-Gln-Asp-Gly-Leu ([Pro(4,4-F2)]GQDGL) [Example 48]	84.40%	76.53%	53.82%	92.71%
Hyp-Gly-Gln-Asp-Val-Leu-Ala-Gly ([Hyp]GQDVLAG) [Example 24]	96.14%	95.71%	95.13%	96.57%
Hyp-Gly-Gln-Asp-Gly-Leu-Ala (isopropyl ester) ([Hyp]GQDGLA-OiPr) [Example 108]	67.07%	62.81%	59.24%	79.49%
Hyp-Gly-Gln-Glu-Phenyl Gly-Leu-Ala [Example 94]	98.77%	98.43%	98.15%	98.59%
DGLAGP [Example 31]	85.08%	78.24%	60.99%	91.42%
Hyp-Gly-Gln-Glu-Val-Leu-Ala ([Hyp]GQEVLA) [Example 87]	98.07%	96.57%	94.38%	99.14%

Substance	Day 1 content (%)	Day 3 content (%)	Day 7 content (%)	Initial content (%)
Hyp-Gly-Gln-Asp-Gly-Leu (isopropyl ester) [Example 107]	76.34%	65.41%	58.41%	87.55%
Hyp-Gly-Gln-Asu-Gly ([Hyp]GQ[Asu′]G) [Example 100]	93.43%	85.30%	74.12%	97.58%
Hyp-Gly-Gln-Asp-Gly-Leu-D Ala ([Hyp]GQDGL[dA]) [Example 66]	89.15%	79.64%	60.49%	96.42%
Hyp-Gly-Gln-Asp-Val-Leu [Example 34] ([Hyp]GQDVL)	97.05%	95.50%	91.59%	97.18%
Hyp-Gly-Gln-Asn-Gly-Leu ([Hyp]GQNGL) [Example 81]	93.01%	92.10%	89.51%	95.87%
Hyp-Gly-Gln-Asu-Gly-Leu (isopropyl ester) [Example 111]	90.71%	82.07%	69.37%	97.48%
Hyp-Gly-Gln-Glu-Leu ([Hyp]GQEL) [Example 90]	98.58%	98.32%	97.94%	98.68%
Hyp-Gly-Gln-Asu-Gly-Leu ([Hyp]GQ[Asu′]GL) [Example 101]	86.61%	86.38%	83.40%	88.72%
Hyp-Gly-Gln-Leu-Leu ([Hyp]GQLL) [Example 121]	99.29%	99.13%	99.22%	99.39%
Hyp-Gly-Gln-Asp (isopropyl ester)-Gly-Leu-Ala (isopropyl ester) [Example 114]	75.01%	56.84%	32.74%	84.91%
Hyp-Gly-Gln-Asp-Leu-Leu ([Hyp]GQDLL) [Example 35]	97.50%	95.78%	93.68%	98.51%
Hyp-Gly-Gln-Asp-Ala ([Hyp]GQDA) [Example 33]	96.68%	89.94%	86.76%	99.46%
Hyp-Gly-Gln-Glu-tert Leu-Leu-Ala ([Hyp]GQE[Tle]LA) [Example 93]	98.35%	98.05%	97.79%	98.39%
Hyp-Gly-Gln-Asp-Gly-Leu-Ala-Gly ([Hyp]GQDGLAG) [Example 15]	91.06%	81.63%	70.56%	91.84%
Hyp-Gly-Gln-Asp-Val ([Hyp]GQDV) [Example 21]	79.91%	77.37%	69.10%	84.05%
Hyp-Gly-Gln-Leu-Val-Leu-Ala ([Hyp]GQLVLA) [Example 97]	95.01%	94.31%	94.08%	97.08%
Hyp-Gly-Gln-Asp-Gly (isopropyl ester) [Example 106]	81.47%	75.61%	68.25%	89.54%
QDGLAGPK [Example 16]	47.33%	16.48%	10.78%	80.41%
[Hyp]G[dQ]DGLA [Example 63]	88.74%	81.41%	64.20%	94.37%
cis-4F-Pro-Gly-Gln-Asp-Gly-Leu ([Pro(cis-4-F)]GQDGL) [Example 46]	87.32%	81.37%	62.32%	93.29%
Leu-Ala-Gly-Pro-Lys (LAGPK) [Example 25]	85.76%	81.09%	77.40%	89.14%
Hyp-Gly-Gln-Asn-Gly-Leu-Ala ([Hyp]GQNGLA) [Example 79]	97.87%	81.04%	76.89%	94.36%
Hyp-Gly-Gln-Glu-Val-Leu ([Hyp]GQEVL) [Example 89]	99.07%	98.81%	98.43%	99.57%
